# Measurements: the RNAGym collection of RNA variant scans (doi:10.7554/elife.80360)
# B1: CPEB3 Ribozyme (parent)
# chain: GGGGGCCACAGCAGAAGCGUUCACGUCGCGGCCCCUGUCAGAUUCUGGUGAAUCUGCGAAUUCUGCUGU
# Variants of: B1
# Assay: self-cleavage, relative activity (ratio to wild type); higher = more cleavage; co-transcriptional
row,Variant,self-cleavage
1,GGGGGCCACAGCAGAAGCGUUCACGUCGCGGCCCCUGUCAGAUGCUGGUGAAUCUGAGAAUUCUGCUGU,0.327
2,GGGGGCCACAGCAGAAGCGUUCACGUCGCGGCCCCUGUCAGAUGCUGGUGAAUCUGGGAAUUCUGCUGU,0.335
3,GGGGGCCACAGCAGAAGCGUUCACGUCGCGGCCCCUGUCAGAUGCUGGUGAAUCUGUGAAUUCUGCUGU,0.23
4,GGGGGCCACAGCAGAAGCGUUCACGUCGCGGCCCCUGUCAGAUGCUGGUGAAUCUGCGAAUUGUGCUGU,0.588
5,GGGGGCCACAGCAGAAGCGUUCACGUCGCGGCCCCUGUCAGAUGCUGGUGAAUCUGCGAAUUCUGAUGU,0.733
6,GGGGGCCACAGCAGAAGCGUUCACGUCGCGGCCCCUGUCAGAUGCUGAUGAAUCUGCGAAUUCUGCUGU,0.963
7,GGGGGCCACAGCAGAAGCGUUCACGUCGCGGCCCCUGUCAGAUGCUGUUGAAUCUGCGAAUUCUGCUGU,0.986
8,GGGGGCCACAGCAGAAGCGUUCACGUCGCGGCCCCUGUCAGAUGCUGGUAAAUCUGCGAAUUCUGCUGU,1
9,GGGGGCCACAGCAGAAGCGUUCACGUCGCGGCCCCUGUCAGAUGCUGGUGAAUCUACGAAUUCUGCUGU,0.822
10,GGGGGCCACAGCAGAAGCGUUCACGUCGCGGCCCCUGUCAGAUGCUGGUGAAUCUCCGAAUUCUGCUGU,0.44
11,GGGGGCCACAGCAGAAGCGUUCACGUCGCGGCCCCUGUCAGAUGCUGGAGAAUCUGCGAAUUCUGCUGU,0.935
12,GGGGGCCACAGCAGAAGCGUUCACGUCGCGGCCCCUGUCAGAUGCUGGCGAAUCUGCGAAUUCUGCUGU,0.901
13,GGGGGCCACAGCAGAAGCGUUCACGUCGCGGCCCCUGUCAGAUGCUGGUGAAGCUGCGAAUUCUGCUGU,0.755
14,GGGGGCCACAGCAGAAGCGUUCACGUCGCGGCCCCUGUCAGAUGCUGGUGAAUCAGCGAAUUCUGCUGU,0.432
15,GGGGGCCACAGCAGAAGCGUUCACGUCGCGGCCCCUGUCAGAUGCUGGUGAAUCGGCGAAUUCUGCUGU,0.574
16,GGGGGCCACAGCAGAAGCGUUCACGUCGCGGCCCCUGUCAGAUGCUGGUGAAUCUGCGAAAUCUGCUGU,0.808
17,GGGGGCCACAGCAGAAGCGUUCACGUCGCGGCCCCUGUCAGAUGCUGGUGAAUCUGCGAAUACUGCUGU,0.908
18,GGGGGCCACAGCAGAAGCGUUCACGUCGCGGCCCCUGUCAGAUGCUGGUGAAUCUGCGAAUGCUGCUGU,0.777
19,GGGGGCCACAGCAGAAGCGUUCACGUCGCGGCCCCUGUCAGAUGCUGGUGAAUCUGCGAAUUCAGCUGU,0.662
20,GGGGGCCACAGCAGAAGCGUUCACGUCGCGGCCCCUGUCAGAUUAUGGUGUAUCUGCGAAUUCUGCUGU,0.931

row,Variant,self-cleavage
1,GGGGGCCACAGCAGAAGCGUUCACGUCGCGGCCCCUGUCAGAUUAUGGUGACUCUGCGAAUUCUGCUGU,0.908
2,GGGGGCCACAGCAGAAGCGUUCACGUCGCGGCCCCUGUCAGAUUAUGGUGAGUCUGCGAAUUCUGCUGU,0.97
3,GGGGGCCACAGCAGAAGCGUUCACGUCGCGGCCCCUGUCAGAUUAUGGUGAAUCUGCGGAUUCUGCUGU,0.971
4,GGGGGCCACAGCAGAAGCGUUCACGUCGCGGCCCCUGUCAGAUUAUGGUGAAUCUGCGACUUCUGCUGU,0.476
5,GGGGGCCACAGCAGAAGCGUUCACGUCGCGGCCCCUGUCAGAUUAUGGUGAAUCUGCGAGUUCUGCUGU,0.862
6,GGGGGCCACAGCAGAAGCGUUCACGUCGCGGCCCCUGUCAGAUUAUGGUGAAUCUGCGAUUUCUGCUGU,0.424
7,GGGGGCCACAGCAGAAGCGUUCACGUCGCGGCCCCUGUCAGAUUAUGGUGAAUAUGCGAAUUCUGCUGU,0.603
8,GGGGGCCACAGCAGAAGCGUUCACGUCGCGGCCCCUGUCAGAUUAUGGUGAAUCUGAGAAUUCUGCUGU,0.359
9,GGGGGCCACAGCAGAAGCGUUCACGUCGCGGCCCCUGUCAGAUUAUGGUGAAUCUGUGAAUUCUGCUGU,0.374
10,GGGGGCCACAGCAGAAGCGUUCACGUCGCGGCCCCUGUCAGAUUAUGGUGAAUCUGCGAAUUGUGCUGU,0.813
11,GGGGGCCACAGCAGAAGCGUUCACGUCGCGGCCCCUGUCAGAUUAUGGUGAAUCUGCGAAUUUUGCUGU,1.02
12,GGGGGCCACAGCAGAAGCGUUCACGUCGCGGCCCCUGUCAGAUUAUGGUGAAUCUGCGAAUUCUGAUGU,0.744
13,GGGGGCCACAGCAGAAGCGUUCACGUCGCGGCCCCUGUCAGAUUAUGGUGAAUCUGCGAAUUCUGUUGU,0.919
14,GGGGGCCACAGCAGAAGCGUUCACGUCGCGGCCCCUGUCAGAUUAUAGUGAAUCUGCGAAUUCUGCUGU,0.999
15,GGGGGCCACAGCAGAAGCGUUCACGUCGCGGCCCCUGUCAGAUUAUCGUGAAUCUGCGAAUUCUGCUGU,0.995
16,GGGGGCCACAGCAGAAGCGUUCACGUCGCGGCCCCUGUCAGAUUAUUGUGAAUCUGCGAAUUCUGCUGU,0.986
17,GGGGGCCACAGCAGAAGCGUUCACGUCGCGGCCCCUGUCAGAUUAUGAUGAAUCUGCGAAUUCUGCUGU,1.02
18,GGGGGCCACAGCAGAAGCGUUCACGUCGCGGCCCCUGUCAGAUUAUGGUCAAUCUGCGAAUUCUGCUGU,0.931
19,GGGGGCCACAGCAGAAGCGUUCACGUCGCGGCCCCUGUCAGAUUAUGGUUAAUCUGCGAAUUCUGCUGU,1.04
